# Article doi:10.1101/2019.12.26.888669
# Molecular target: Escherichia coli thiol peroxidase, oxidized (disulfide) state (Escherichia coli) (UniProt P0A862)
# Test: SEC-MALS
substance,measurement,value
"Escherichia coli thiol peroxidase, oxidized (disulfide) state (from UniProt P0A862 1-168) (enzyme)",stoichiometry N,3
